One test relates to 3×MBT domain of L3MBTL1. The experiment in a line: Triple SILAC pull-down, 3xMBT/3xMBTD355N ratio (cytoplasmic, nuclear and chromatin fractions of 293T cells).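 For all read-outs here: proteins quantified with MaxQuant, requiring at least two unique peptides and quantification in both label directions, normalized to the mean of proteins from a digested loading control.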 It counts as binding, human. Particulars: SILAC ratio, pull-down 3xMBT vs 3xMBTD355N; for 3xMBT/D355N UNC Heavy: experiment with UNC0638 in heavy SILAC media; for 3xMBT/D355N UNC Light: experiment with UNC0638 in light SILAC media.

In the next test the target is T1, G9a and GLP (Homo sapiens, UniProt Q96KQ7+Q9H9B1).
T1 sequence (Q96KQ7 2-1210 limits assumed): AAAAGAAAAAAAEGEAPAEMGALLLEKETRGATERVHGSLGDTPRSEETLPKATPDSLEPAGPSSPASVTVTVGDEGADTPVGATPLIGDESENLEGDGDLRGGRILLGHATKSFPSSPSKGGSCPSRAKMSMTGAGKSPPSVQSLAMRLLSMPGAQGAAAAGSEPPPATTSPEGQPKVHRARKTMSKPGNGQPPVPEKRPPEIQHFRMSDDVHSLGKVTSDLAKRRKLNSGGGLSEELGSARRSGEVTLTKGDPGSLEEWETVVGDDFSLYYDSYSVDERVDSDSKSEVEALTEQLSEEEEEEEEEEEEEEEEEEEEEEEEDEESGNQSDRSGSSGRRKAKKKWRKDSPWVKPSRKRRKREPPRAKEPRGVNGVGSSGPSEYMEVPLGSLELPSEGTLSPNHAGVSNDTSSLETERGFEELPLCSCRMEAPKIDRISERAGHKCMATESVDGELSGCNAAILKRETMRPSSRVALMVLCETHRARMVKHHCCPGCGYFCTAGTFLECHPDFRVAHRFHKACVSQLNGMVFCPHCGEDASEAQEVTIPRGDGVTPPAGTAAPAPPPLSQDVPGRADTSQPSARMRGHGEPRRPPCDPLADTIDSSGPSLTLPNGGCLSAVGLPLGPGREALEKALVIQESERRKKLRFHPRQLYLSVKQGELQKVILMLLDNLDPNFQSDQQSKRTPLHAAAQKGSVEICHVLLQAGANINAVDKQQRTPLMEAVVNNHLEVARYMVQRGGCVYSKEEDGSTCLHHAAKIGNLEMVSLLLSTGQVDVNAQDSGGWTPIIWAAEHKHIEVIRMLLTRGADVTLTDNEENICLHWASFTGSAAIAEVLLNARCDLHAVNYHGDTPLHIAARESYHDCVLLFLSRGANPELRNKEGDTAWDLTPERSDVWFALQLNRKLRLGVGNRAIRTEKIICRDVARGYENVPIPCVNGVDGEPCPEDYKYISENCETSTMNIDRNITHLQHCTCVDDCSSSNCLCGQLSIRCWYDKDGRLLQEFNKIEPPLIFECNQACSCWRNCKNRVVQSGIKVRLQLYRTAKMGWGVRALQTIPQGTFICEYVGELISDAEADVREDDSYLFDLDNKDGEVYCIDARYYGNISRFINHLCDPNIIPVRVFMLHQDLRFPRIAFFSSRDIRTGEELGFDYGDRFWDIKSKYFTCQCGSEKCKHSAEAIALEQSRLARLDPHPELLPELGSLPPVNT
T1 sequence (Q9H9B1 2-1298 limits assumed): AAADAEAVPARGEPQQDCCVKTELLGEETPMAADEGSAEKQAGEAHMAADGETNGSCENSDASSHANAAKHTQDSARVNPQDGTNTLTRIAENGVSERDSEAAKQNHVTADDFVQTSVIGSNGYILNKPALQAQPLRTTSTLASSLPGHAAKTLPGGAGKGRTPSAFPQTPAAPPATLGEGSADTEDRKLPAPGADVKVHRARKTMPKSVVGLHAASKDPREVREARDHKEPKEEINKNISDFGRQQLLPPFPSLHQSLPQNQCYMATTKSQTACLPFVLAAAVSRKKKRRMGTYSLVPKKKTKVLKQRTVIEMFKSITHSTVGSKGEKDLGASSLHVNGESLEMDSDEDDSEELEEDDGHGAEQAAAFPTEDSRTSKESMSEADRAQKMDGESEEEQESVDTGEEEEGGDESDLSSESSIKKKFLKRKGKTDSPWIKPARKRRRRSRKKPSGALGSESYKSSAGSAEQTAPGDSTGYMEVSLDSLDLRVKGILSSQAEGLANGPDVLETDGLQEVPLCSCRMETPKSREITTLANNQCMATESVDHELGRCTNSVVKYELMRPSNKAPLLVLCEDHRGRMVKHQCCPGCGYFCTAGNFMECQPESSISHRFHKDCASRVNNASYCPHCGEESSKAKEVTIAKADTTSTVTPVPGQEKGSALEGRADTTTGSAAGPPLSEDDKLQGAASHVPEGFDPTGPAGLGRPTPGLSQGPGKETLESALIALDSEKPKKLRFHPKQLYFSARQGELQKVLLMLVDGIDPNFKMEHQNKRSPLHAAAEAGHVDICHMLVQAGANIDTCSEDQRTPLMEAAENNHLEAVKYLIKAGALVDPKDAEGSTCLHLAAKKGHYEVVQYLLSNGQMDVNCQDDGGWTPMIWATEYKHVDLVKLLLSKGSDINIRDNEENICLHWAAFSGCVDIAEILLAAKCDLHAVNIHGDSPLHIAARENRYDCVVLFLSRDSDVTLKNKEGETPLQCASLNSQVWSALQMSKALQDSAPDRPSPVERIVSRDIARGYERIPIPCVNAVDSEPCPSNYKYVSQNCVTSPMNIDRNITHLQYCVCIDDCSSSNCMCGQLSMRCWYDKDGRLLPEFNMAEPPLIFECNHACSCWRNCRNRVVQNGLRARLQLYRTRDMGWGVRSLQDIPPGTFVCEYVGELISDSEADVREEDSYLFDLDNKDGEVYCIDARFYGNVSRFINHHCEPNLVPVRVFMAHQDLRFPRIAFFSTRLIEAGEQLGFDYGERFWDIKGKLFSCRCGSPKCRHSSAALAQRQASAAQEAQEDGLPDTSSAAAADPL
Put plainly: Triple SILAC pull-down after UNC0638 treatment of 293T cells, DMSO/UNC0638 ratio of protein captured by 3×MBT.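 For all read-outs here: mass spectrometry (Q-Exactive) SILAC quantitation, DMSO/UNC0638 ratio computed after subtracting 3×MBTD355N mutant pull-down background, only proteins with at least twofold 3×MBT over mutant signal considered.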 In kind it is cell-based. Particulars: for Relative to UNC0638 UNC Heavy / Relative to UNC0638 UNC Light: SILAC ratio DMSO/UNC0638 of protein pulled down with 3xMBT; for Relative to UNC0638 UNC Heavy: UNC0638 in heavy SILAC media; for Relative to UNC0638 UNC Light: UNC0638 in light SILAC media; for Relative to UNC0638 Average: average of UNC Light and UNC Heavy experiments. Further details: cells were treated for 24 hours with UNC0638 at 2.5 μM or DMSO vehicle control; endogenous in cells; host or cells: HEK 293T.

B1: RFC1 (protein, UniProt P35251 1-1148, looked up)
Replication factor C subunit 1: MDIRKFFGVIPSGKKLVSETVKKNEKTKSDEETLKAKKGIKEIKVNSSRKEDDFKQKQPSKKKRIIYDSDSESEETLQVKNAKKPPEKLPVSSKPGKISRQDPVTYISETDEEDDFMCKKAASKSKENGRSTNSHLGTSNMKKNEENTKTKNKPLSPIKLTPTSVLDYFGTGSVQRSNKKMVASKRKELSQNTDESGLNDEAIAKQLQLDEDAELERQLHEDEEFARTLAMLDEEPKTKKARKDTEAGETFSSVQANLSKAEKHKYPHKVKTAQVSDERKSYSPRKQSKYESSKESQQHSKSSADKIGEVSSPKASSKLAIMKRKEESSYKEIEPVASKRKENAIKLKGETKTPKKTKSSPAKKESVSPEDSEKKRTNYQAYRSYLNREGPKALGSKEIPKGAENCLEGLIFVITGVLESIERDEAKSLIERYGGKVTGNVSKKTNYLVMGRDSGQSKSDKAAALGTKIIDEDGLLNLIRTMPGKKSKYEIAVETEMKKESKLERTPQKNVQGKRKISPSKKESESKKSRPTSKRDSLAKTIKKETDVFWKSLDFKEQVAEETSGDSKARNLADDSSENKVENLLWVDKYKPTSLKTIIGQQGDQSCANKLLRWLRNWQKSSSEDKKHAAKFGKFSGKDDGSSFKAALLSGPPGVGKTTTASLVCQELGYSYVELNASDTRSKSSLKAIVAESLNNTSIKGFYSNGAASSVSTKHALIMDEVDGMAGNEDRGGIQELIGLIKHTKIPIICMCNDRNHPKIRSLVHYCFDLRFQRPRVEQIKGAMMSIAFKEGLKIPPPAMNEIILGANQDIRQVLHNLSMWCARSKALTYDQAKADSHRAKKDIKMGPFDVARKVFAAGEETAHMSLVDKSDLFFHDYSIAPLFVQENYIHVKPVAAGGDMKKHLMLLSRAADSICDGDLVDSQIRSKQNWSLLPAQAIYASVLPGELMRGYMTQFPTFPSWLGKHSSTGKHDRIVQDLALHMSLRTYSSKRTVNMDYLSLLRDALVQPLTSQGVDGVQDVVALMDTYYLMKEDFENIMEISSWGGKPSPFSKLDPKVKAAFTRAYNKEAHLTPYSLQAIKASRHSTSPSLDSEYNEELNEDDSQSDEKDQDAIETDAMIKKKTKSSKPSKPEKDKEPRKGKGKSSKK
Turning to B1, in the test on 3×MBT domain of L3MBTL1, the “3xMBT/D355N UNC Heavy” value came out at 1.29 log base 2 and the “3xMBT/D355N UNC Light” value is −1.32 log base 2. For the same molecule, in the test with G9a and GLP, the “Relative to UNC0638 UNC Heavy” value was found to be 0.61 log base 2, the “Relative to UNC0638 UNC Light” value is −0.18 log base 2 and the “Relative to UNC0638 Average” value is reported as 0.21 log base 2.

B2: CHERP (protein, UniProt Q8IWX8 1-916, looked up)
Calcium homeostasis …: MEMPLPPDDQELRNVIDKLAQFVARNGPEFEKMTMEKQKDNPKFSFLFGGEFYSYYKCKLALEQQQLICKQQTPELEPAATMPPLPQPPLAPAAPIPPAQGAPSMDELIQQSQWNLQQQEQHLLALRQEQVTAAVAHAVEQQMQKLLEETQLDMNEFDNLLQPIIDTCTKDAISAGKNWMFSNAKSPPHCELMAGHLRNRITADGAHFELRLHLIYLINDVLHHCQRKQARELLAALQKVVVPIYCTSFLAVEEDKQQKIARLLQLWEKNGYFDDSIIQQLQSPALGLGQYQATLINEYSSVVQPVQLAFQQQIQTLKTQHEEFVTSLAQQQQQQQQQQQQLQMPQMEAEVKATPPPPAPPPAPAPAPAIPPTTQPDDSKPPIQMPGSSEYEAPGGVQDPAAAGPRGPGPHDQIPPNKPPWFDQPHPVAPWGQQQPPEQPPYPHHQGGPPHCPPWNNSHEGMWGEQRGDPGWNGQRDAPWNNQPDAAWNSQFEGPWNSQHEQPPWGGGQREPPFRMQRPPHFRGPFPPHQQHPQFNQPPHPHNFNRFPPRFMQDDFPPRHPFERPPYPHRFDYPQGDFPAEMGPPHHHPGHRMPHPGINEHPPWAGPQHPDFGPPPHGFNGQPPHMRRQGPPHINHDDPSLVPNVPYFDLPAGLMAPLVKLEDHEYKPLDPKDIRLPPPMPPSERLLAAVEAFYSPPSHDRPRNSEGWEQNGLYEFFRAKMRARRRKGQEKRNSGPSRSRSRSKSRGRSSSRSNSRSSKSSGSYSRSRSRSCSRSYSRSRSRSRSRSRSSRSRSRSQSRSRSKSYSPGRRRRSRSRSPTPPSSAGLGSNSAPPIPDSRLGEENKGHQMLVKMGWSGSGGLGAKEQGIQDPIKGGDVRDKWDQYKGVGVALDDPYENYRRNKSYSFIARMKARDECK
Take B2: in the test with 3×MBT domain of L3MBTL1, the “3xMBT/D355N UNC Heavy” value was found to be 1.58 log base 2 and the “3xMBT/D355N UNC Light” value was 2.26 log base 2. For the same molecule, in the test with G9a and GLP, the “Relative to UNC0638 UNC Heavy” value came to 0.38 log base 2, the “Relative to UNC0638 UNC Light” value turned out to be 0.05 log base 2 and the “Relative to UNC0638 Average” value is 0.22 log base 2.

The values above are taken from patent US20140274782A1, “AFFINITY REAGENTS AND METHODS FOR DETECTION, PURIFICATION, AND PROTEOMIC ANALYSIS OF METHYLATED PROTEINS” (The Board of Trustees of the Leland Stanford Junior …, priority 2013, published 2014).
